# T1: CLIPCG12 (human, UniProt P30622 48-300)
# T1 sequence: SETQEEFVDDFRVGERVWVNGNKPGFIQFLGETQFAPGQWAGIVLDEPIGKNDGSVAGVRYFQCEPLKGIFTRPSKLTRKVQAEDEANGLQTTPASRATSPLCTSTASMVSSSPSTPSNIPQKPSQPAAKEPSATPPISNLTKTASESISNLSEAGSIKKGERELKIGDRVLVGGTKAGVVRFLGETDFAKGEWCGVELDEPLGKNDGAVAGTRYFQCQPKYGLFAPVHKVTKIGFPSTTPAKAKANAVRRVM
# Legend:
# BioGFP-SLAIN2 = BioGFP-SLAIN2 (human, UniProt Q9P270 1-581, biotin (substrate linker of the biotin ligase BirA, co-expressed)); test: pull-down
# CLIPCG12 = target: T1, CLIPCG12; test: ITC
# SEC-MALS = target: the molecule itself; test: SEC-MALS
binder,measurement,setting,value
GST–CLIP-170-N (domain or fragment) MSMLKPSGLKAPTKILKPGSTALKTPAAAAAPLEKTVPSEKASGPPSSETQEEFVDDFRVGERVWVNGNKPGFIQFLGETQFAPGQWAGIVLDEPIGKNDGSVAGVRYFQCEPLKGIFTRPSKLTRKVQAEDEANGLQTAHARAASPLSTAAATMVSSSPATPSNIPQKPSQPVAKETSATPQISNLTKTASESISNLSEAGSVKKGERELKIGDRVLVGGTKAGVVRFLGETDFAKGEWCGVELDEPLGKNDGAVAGTRYFQCQPKYGLFAPVHKVTKIGFPSTTPAKAKAAAVRRVMATTPASLKRSP,binding result,BioGFP-SLAIN2,binds
GSMKDDSWKDGCY [SLAIN2c],stoichiometry N,CLIPCG12,2
SLAIN2 N-terminal fragment (residues 1–43) (domain or fragment) not shown,stoichiometry N,SEC-MALS,2

# Source: publication PMC3115796 (The Journal of Cell Biology, 2011)
